Experimental data from patent US10688197B2, “Non-alcoholic fatty liver regulator 14-3-3 protein” (Korea University Research and Business Foundation, priority 2015, dated 2020).

Key:
PPARγ2 = target: T1, PPARγ2 (Homo sapiens, UniProt P37231); test: aP2 promoter luciferase reporter, transcriptional activity of PPARγ2 in HEK-293T cells; format: cell-based; conditions: for transcriptional activity of PPARγ2: overexpressed according to concentration, concentration-dependent manner, FIG. 1B/1C; for transcriptional activity of PPARγ2 (activity of the aP2 promoter): overexpression of 14-3-3 isoform proteins (0.5 μg), HEK-293T, 10 μM pioglitazone 24 hours, FIG. 1A
T1 construct: endogenous in cells; host or cells: HEK-293T
T1 sequence (P37231 1-505): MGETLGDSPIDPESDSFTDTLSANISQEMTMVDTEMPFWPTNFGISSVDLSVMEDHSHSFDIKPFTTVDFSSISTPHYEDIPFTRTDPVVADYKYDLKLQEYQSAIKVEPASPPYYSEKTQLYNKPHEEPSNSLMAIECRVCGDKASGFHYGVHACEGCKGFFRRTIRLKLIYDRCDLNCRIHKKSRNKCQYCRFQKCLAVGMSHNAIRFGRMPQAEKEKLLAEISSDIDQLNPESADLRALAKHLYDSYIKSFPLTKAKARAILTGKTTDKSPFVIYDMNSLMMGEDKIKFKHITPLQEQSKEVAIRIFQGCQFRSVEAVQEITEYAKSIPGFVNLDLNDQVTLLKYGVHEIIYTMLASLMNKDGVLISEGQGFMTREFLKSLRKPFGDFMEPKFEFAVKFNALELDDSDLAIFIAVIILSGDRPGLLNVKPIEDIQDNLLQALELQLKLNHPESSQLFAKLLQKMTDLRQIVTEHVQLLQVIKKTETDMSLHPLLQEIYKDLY
Method: The transcriptional activity of PPARγ2 plays a vital role in expression of liver diseases-associated proteins. Thus, the transcriptional activity of PPARγ2 was measured using an aP2 promoter regulated by PPARγ2, and the role of 7 types of 14-3-3 proteins was investigated.
For this, HEK-293T cells were seeded in a 12-well plate at a density of 1×10^5 cells per each well, and then transfected with an aP2 promoter construct (0.5 μg) and 14-3-3 isoform proteins (α, β, γ, δ, ε, ζ, η, θ) (0.5 μg) or si-14-3-3β and si-14-3-3γ siRNA (5 nM and 10 nM, Santa Cruz) using an E-fection plus reagent (Lugen). A ratio of DNA to the E-fection plus reagent was 1:2, and this method was performed according to a manufacturer's manual. After transfection, the corresponding cells were treated with 10 μM of pioglitazone (Pio, Santa Cruz) for 24 hours, washed with ice-cold PBS, and lysed using 80 μl/well of a reporter lysis buffer (Promega, Madison, Wis.), and the lysed cells were centrifuged at 10,000×g and 4° C. for 10 minutes to collect a supernatant, and luciferase activity was measured. As an instrument, Luminometer 20/20n (Turner Biosystems, Sunnyvale, Calif.) was used. For normalization, the cells were cotransfected with pSV40-β-galactosidase. For the collected supernatant, β-galactosidase activity was measured and the luciferase activity was revised, and the obtained values were plotted. At this time, a β-galactosidase enzyme analysis system (Promega, Madison, Wis.) was used, and analysis was performed using a DU530 spectrophotometer (Beckman Instruments, Palo Alto, Calif.).

PPAR-RXR complex = target: T2, PPAR-RXR complex (Homo sapiens, UniProt P37231); test: Formation of the PPAR-RXR complex; format: cell-based; conditions: overexpression, FIG. 8C
T2 sequence (P37231 1-505): T1 sequence (P37231 1-505)
T2 sequence (P19793 1-462 partner): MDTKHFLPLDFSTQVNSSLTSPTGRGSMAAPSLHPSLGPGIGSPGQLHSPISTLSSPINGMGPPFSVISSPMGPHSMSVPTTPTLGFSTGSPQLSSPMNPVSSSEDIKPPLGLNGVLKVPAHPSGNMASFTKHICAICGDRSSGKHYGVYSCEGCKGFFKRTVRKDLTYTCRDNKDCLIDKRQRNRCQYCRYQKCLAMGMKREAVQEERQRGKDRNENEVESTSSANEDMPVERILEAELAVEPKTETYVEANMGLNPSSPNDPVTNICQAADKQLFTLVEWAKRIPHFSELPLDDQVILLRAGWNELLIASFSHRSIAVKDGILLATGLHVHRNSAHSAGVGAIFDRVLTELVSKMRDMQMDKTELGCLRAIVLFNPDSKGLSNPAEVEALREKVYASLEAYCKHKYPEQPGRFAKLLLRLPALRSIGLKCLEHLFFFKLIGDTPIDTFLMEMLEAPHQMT

[1] = target: T3, PPARγ2 deletion mutant (139-505) (Homo sapiens, UniProt P37231); test: GST-pull down assay with PPARγ2 deletion mutant (139-505); format: binding; conditions: FIG. 3B/3C
T3 construct: Flag-PPARγ2 (139-505) DNA (4 μg); expressed in transfected cells; host or cells: HEK-293T
T3 sequence (P37231 139-505): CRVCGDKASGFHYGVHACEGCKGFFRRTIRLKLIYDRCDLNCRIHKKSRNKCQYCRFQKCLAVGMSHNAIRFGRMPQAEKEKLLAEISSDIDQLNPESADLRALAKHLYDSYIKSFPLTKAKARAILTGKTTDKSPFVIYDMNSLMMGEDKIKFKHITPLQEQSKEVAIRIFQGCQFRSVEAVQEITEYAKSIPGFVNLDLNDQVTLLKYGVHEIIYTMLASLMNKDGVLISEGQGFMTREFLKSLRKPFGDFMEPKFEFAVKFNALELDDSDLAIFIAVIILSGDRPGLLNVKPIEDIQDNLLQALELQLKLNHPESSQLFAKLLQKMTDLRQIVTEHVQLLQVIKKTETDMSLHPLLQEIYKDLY
Method: HEK-293T cells were seeded in a 100 mm plate at a density of 2×10^6 cells per each well, and then transfected with Flag-PPARγ2 (1-505) DNA (4 μg), Flag-PPARγ2 (1-310) DNA (4 μg), Flag-PPARγ2 (139-505) DNA (4 μg), and mGST-14-3-3β (4 μg) or mGST-14-3-3γ (4 μg) using an E-fection plus reagent (Lugen). For Flag-PPARγ2 (1-310) DNA and Flag-PPARγ2 (139-505) DNA, DNA fragments amplified through polymerase chain reaction (PCR) were cloned into a pCMV-3Tag-1 vector using restriction enzymes XhoI and ApaI. A ratio of DNA to the E-fection plus reagent was 1:2, and this method was performed according to a manufacturer's manual. The corresponding cells were washed with ice-cold PBS and lysed using 500 μl/well of a lysis buffer (150 mM NaCl, 1 mM EDTA, 1% Nonidet P-40, 5% glycerol, 25 mM tris-HCl, pH 7.5, protease inhibitor added), and the lysed cells were centrifuged at 10,000×g and 4° C. for 10 minutes to extract proteins. Thereafter, 1,000 μg of the proteins was reacted with 20 μl of glutathione Sepharose 4B beads (GE Healthcare, Buckinghamshire, UK) for 6 hours, and then washing of the beads with 1 ml of ice-cold PBS was repeated 5 times, and the beads were boiled at 100° C. for 10 minutes, followed by 10% SDS-PAGE gel separation and western blotting. A ratio of GST antibodies (Santa Cruz) to Flag antibodies (Santa Cruz) was 1:3000. […]

transcriptional activity of PPARγ2 (PPARγ2) | transcriptional activity of PPARγ2 (activity of the aP2 promoter) (PPARγ2) | formation of the PPAR-RXR complex (PPAR-RXR complex) | binding to PPARγ2 deletion mutant (139-505) [1] | Substance
increased | increased | did not affect | bound | 14-3-3β: 14-3-3 isoform protein overexpressed by DNA transfection; increases the transcriptional activity of PPARγ2 by binding to PPARγ2
reduced | decreased | did not affect | bound | 14-3-3γ: 14-3-3 isoform protein overexpressed by DNA transfection; decreases the transcriptional activity of PPARγ2; proposed active ingredient
